Data reported in publication PMC4709127, “Wuho Is a New Member in Maintaining Genome Stability through its Interaction with Flap Endonuclease 1”.

T1: hWH (Wuho, WDR4) (Homo sapiens, UniProt P57081 1-412)
T1 sequence: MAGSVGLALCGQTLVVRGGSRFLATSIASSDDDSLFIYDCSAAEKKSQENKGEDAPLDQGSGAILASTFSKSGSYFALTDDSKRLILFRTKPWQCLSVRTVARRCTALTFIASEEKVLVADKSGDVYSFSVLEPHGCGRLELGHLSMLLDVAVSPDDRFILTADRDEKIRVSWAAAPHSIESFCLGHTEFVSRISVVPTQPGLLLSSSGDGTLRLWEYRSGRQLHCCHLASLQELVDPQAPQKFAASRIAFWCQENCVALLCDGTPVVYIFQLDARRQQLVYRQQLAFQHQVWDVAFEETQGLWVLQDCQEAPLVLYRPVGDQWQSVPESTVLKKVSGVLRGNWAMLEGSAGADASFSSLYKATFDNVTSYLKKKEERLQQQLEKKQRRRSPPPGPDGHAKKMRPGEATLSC


Columns and labels:
FEN1 = FEN1 (Homo sapiens, UniProt P39748 1-380); test: EMSA; no Mg2+ in binding buffer; FEN1 25-1000 nM; 50 nM DNA, 50 mM Tris pH 8, 50 mM NaCl, 37 C, 10 min, 20 ul; TBE-PAGE; details: protein: recombinant, tags: C-terminal His6, label: 5' fluorophore (FAM on oligo 1, or Cy5 on oligo 4)
hWH (Wuho, WDR4) = target: T1, hWH (Wuho, WDR4); test: EMSA; hWH 25-1000 nM, no significant affinity; 50 nM DNA, 50 mM Tris pH 8, 50 mM NaCl, 37 C, 10 min, 20 ul; TBE-PAGE; details: protein: recombinant, tags: C-terminal His6 (pET23b), label: 5' fluorophore (FAM on oligo 1, or Cy5 on oligo 4)
[1] = double flap: 1:15-34 or 1:21-34 pairs with 2:1-14 (14 bp), 5' flap 20 nt, 3:1-16 pairs with 2:15-30 (16 bp), 3' flap 1 nt
[2] = fork: 14 bp duplex (1:21-34 with 2:1-14), 5' arm 20 nt, 3' arm 16 nt

Sequence of FEN1 (P39748 whole entry): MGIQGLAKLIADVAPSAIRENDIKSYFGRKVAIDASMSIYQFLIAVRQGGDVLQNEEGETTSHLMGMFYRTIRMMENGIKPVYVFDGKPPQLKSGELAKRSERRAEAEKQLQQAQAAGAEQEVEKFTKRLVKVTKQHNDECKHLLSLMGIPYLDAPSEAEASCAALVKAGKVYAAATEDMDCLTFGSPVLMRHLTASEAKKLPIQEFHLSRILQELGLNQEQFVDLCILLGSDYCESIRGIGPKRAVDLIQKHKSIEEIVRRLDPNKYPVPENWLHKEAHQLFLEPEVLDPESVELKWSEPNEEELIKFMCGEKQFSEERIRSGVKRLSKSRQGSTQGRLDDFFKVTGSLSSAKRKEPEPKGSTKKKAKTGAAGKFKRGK

Binder	binding result (FEN1; [1])	binding result (hWH (Wuho, WDR4); [1])	binding result (FEN1; [2])	binding result (hWH (Wuho, WDR4); [2])
Double-flap substrate (dsDNA) DNA 1: GATGTCAAGCAGTCCTAACTTTGAGGCAGAGTCC DNA 2: GGACTCTGCCTCAAGACGGTAGTCAACGTG DNA 3: CACGTTGACTACCGTCC	binds	no binding		
Y-shape substrate (dsDNA) DNA 1: GATGTCAAGCAGTCCTAACTTTGAGGCAGAGTCC DNA 2: GGACTCTGCCTCAAGACGGTAGTCAACGTG			binds	no binding
